Source: patent US9555076B2, “Neuregulin based methods and compositions for treating cardiovascular diseases” (Zensun (Shanghai) Science & Technology, Co., Ltd., priority 2002, dated 2017)
Several values for one entry are separate records, joined by “and”; a condition that tells them apart may be missing. Equal values may be shown once.

Experiments:
Rhesus = assay: Serum antibody detection (ELISA) in long-term toxicity study; format: in vivo; conditions: 7.5, 15, 75 μg/kg/d iv, 1, 2, 3-week and end of convalescent period
Procedure: Sealing: Wash the plate 5 times, prepare 5% evaporated skimmed milk with cleaning solution.
Dilute the scheduled for testing serum; dilute the sample with sample dilution solution, dilute gradient is 1:100.
Add sample: Wash the sealed enzyme labeled plate for 3 times, add scheduled for testing serum, 100 μl/hole, 37° C. for 1 hour.
Add enzyme labeled antibody: Wash the plate 5 times, add 1:1000 diluted HRP labeled rat anti-monkey immunoglobulin, […], 37° C. for 1 hour.
Substrate: Wash the plate 5 times, add newly prepared substrate operating fluid, 100 μl/hole, 37° C. for 10 minutes.
Ending: add 2N H2SO4, 50 μl/hole to end the reaction.
Odd value detection: Positive result was defined as OD value of testing sample was 2.1 time greater than that of the negative control (serum was 1:100 diluted).

[1] = tested on: toxic myocarditis caused by Adriamycin in rat; assay: Hemodynamics index, Adriamycin rat model; format: in vivo, SD rat; conditions: rat, Adriamycin model
Procedure: rhNRG-1 β was injected into the tail vein within 24 hours after the first injection of Adriamycin. During the experiment, animal survival was dynamically monitored, heart function indexes (maximal rate of pressure increase within left ventricle, […], maximal rate of pressure decrease within left ventricle, −dp/dt, systolic end pressure of left ventricle LVPmax, diastolic end pressure of left ventricle LVPmin) were monitored at the 5th week. Section was made from the heart tissue and pathological changes examined.
Hemodynamics index such as carotid artery pressure, intra-ventricular pressure. dp/dt was measured with six lead physiology recorder. Major procedure: separate the right carotid artery, ligate its distal end and block its proximal end with arterial clamps, 20 G arteriovenous indwelling needle was inserted into the carotid artery, took out the medal stylet, loosened the artery clamps, push the plastic trocar further into appropriate depth, indwelled for 10 minutes, observed the wave style recorded by the physiology recorder, after it was stable, then recorded the carotid artery pressure and push the trocar further into the left ventricle, kept in place for 15 minutes, after it was stable, then recorded the dp/dt, −dp/dt, LVPmax and LVPmin.

[2] = tested on: toxic myocarditis caused by Adriamycin in rat; assay: Myocardial pathologic scoring, Adriamycin rat model; format: in vivo, SD rat; conditions: Adriamycin model
Procedure: Heart was extirpated after thoracotomy (auricle should be reserved), the heart weight was measured after dried with absorbent paper, ratio of heart weight/body weight calculated; outer diameter of the heart was measured at ½ site of the vertically standing heart; medium part of the left ventricle was crosswise cut open, maximal thickness of free wall of the left ventricle measured; the heart was fixed with 10% formaldehyde, paraffin embedded and HE stained, observation of the myocardial structure carried out under optic microscope, give out pathologic score.
Scoring could be performed between grade 1 and grade 2 or between grade 2 and grade 3, e.g. grade 1.5, grade 2.5 etc. 6.3.3.3 Determination of Hemodynamics Index

[3] = 10 μg/kg iv qd × 10 d, (I), listed as rhNRG-1β
[4] = 20 μg/kg iv qd × 10 d, (I), listed as rhNRG-1β
[5] = 40 μg/kg iv qd × 10 d, (I), listed as rhNRG-1β

B1: rhNRG-1 β: Recombinant human neuregulin fragment of 61 amino acid (SEQ ID NO:4), 3 disulfide bonds, expressed in E. coli (protein, listed as Homo sapiens)
chain: SHLVKCAEKEKTFCVNGGECFMVKDLSNPSRYLCKCPNEFTGDRCQNYVMASFYKAEELYQ
modifications: disulfide (positions not given here)
- antibody testing (Rhesus): negative results
- +dp/dt ([1]; 10 μg/kg iv qd × 10 d, (I)): 4875±636 mmHg/s and 4875 mmHg/s
- LVPmax ([1]; 10 μg/kg iv qd × 10 d, (I)): 145±15.2 mmHg and 145 mmHg
- LVPmin ([1]; 10 μg/kg iv qd × 10 d, (I)): −24.5 mmHg
- −dp/dt ([1]; 10 μg/kg iv qd × 10 d, (I)): −3672±884 mmHg/s and −3672 mmHg/s
- +dp/dt [1, 3]: 4875±636 mmHg/s
- LVPmax [1, 3]: 145±15.2 mmHg
- −dp/dt [1, 3]: −3672±884 mmHg/s
- +dp/dt ([1]; 10 μg/kg iv qd × 10 d, (II)): 4956 mmHg/s
- LVPmax ([1]; 10 μg/kg iv qd × 10 d, (II)): 158.2 mmHg
- LVPmin ([1]; 10 μg/kg iv qd × 10 d, (II)): −22.4 mmHg
- −dp/dt ([1]; 10 μg/kg iv qd × 10 d, (II)): −3626 mmHg/s
- +dp/dt ([1]; 20 μg/kg iv qd × 10 d, (I)): 6107±418 mmHg/s and 6107 mmHg/s
- LVPmax ([1]; 20 μg/kg iv qd × 10 d, (I)): 156.1±17.7 mmHg and 156.1 mmHg
- LVPmin ([1]; 20 μg/kg iv qd × 10 d, (I)): −26.9 mmHg
- −dp/dt ([1]; 20 μg/kg iv qd × 10 d, (I)): −4323±457 mmHg/s and −4323 mmHg/s
- +dp/dt [1, 4]: 6107±418 mmHg/s
- LVPmax [1, 4]: 156.1±17.7 mmHg
- −dp/dt [1, 4]: −4323±457 mmHg/s
- +dp/dt ([1]; 20 μg/kg iv qd × 10 d, (II)): 5833 mmHg/s
- LVPmax ([1]; 20 μg/kg iv qd × 10 d, (II)): 157.7 mmHg
- LVPmin ([1]; 20 μg/kg iv qd × 10 d, (II)): −26.6 mmHg
- −dp/dt ([1]; 20 μg/kg iv qd × 10 d, (II)): −4345 mmHg/s
- +dp/dt ([1]; 40 μg/kg iv qd × 10 d, (I)): 5954±689 mmHg/s and 5954 mmHg/s
- LVPmax ([1]; 40 μg/kg iv qd × 10 d, (I)): 165.7±22.7 mmHg and 165.7 mmHg
- LVPmin ([1]; 40 μg/kg iv qd × 10 d, (I)): −27.4 mmHg
- −dp/dt ([1]; 40 μg/kg iv qd × 10 d, (I)): −4794±954 mmHg/s and −4794 mmHg/s
- +dp/dt [1, 5]: 5954±689 mmHg/s
- LVPmax [1, 5]: 165.7±22.7 mmHg
- −dp/dt [1, 5]: −4794±954 mmHg/s
- +dp/dt ([1]; 40 μg/kg iv qd × 10 d, (II)): 6041 mmHg/s
- LVPmax ([1]; 40 μg/kg iv qd × 10 d, (II)): 166.3 mmHg
- LVPmin ([1]; 40 μg/kg iv qd × 10 d, (II)): −22.2 mmHg
- −dp/dt ([1]; 40 μg/kg iv qd × 10 d, (II)): −4529 mmHg/s
- Pathologic scoring ([2]; 10 μg/kg iv qd × 10 d, (I)): 1.83 ± 0.41
- Pathologic scoring ([2]; 10 μg/kg iv qd × 10 d, (II)): 2.167 ± 0.516
- Pathologic scoring ([2]; 20 μg/kg iv qd × 10 d, (I)): 1.17 ± 0.93
- Pathologic scoring ([2]; 20 μg/kg iv qd × 10 d, (II)): 1.667 ± 0.931
- myocardial pathologic score of the section shown in FIG. 20 ([2]; 20 μg/kg testing drug group): 1
- Pathologic scoring ([2]; 40 μg/kg iv qd × 10, (II)): 0.583 ± 0.204
- Pathologic scoring ([2]; 40 μg/kg iv qd × 10 d, (I)): 0.33 ± 0.41
- myocardial pathologic score of the section shown in FIG. 20 ([2]; 40 μg/kg testing drug group): 1
- myocardial pathologic score of the section shown in FIG. 20 ([2]; 130 μg/kg testing drug group (so in the source)): 1.5
